Measurements taken from patent CN105968202A (UNIV NANCHANG, dated 2016).

Columns and labels:
[1] = biological target: T1, PSMA on LNCaP cells (前列腺癌细胞LNCaP表达PSMA) (UniProt Q04609 1-750, limits assumed); experiment: cell ELISA (HRP-anti-M13, OD450) and immunofluorescence (anti-M13 + FITC secondary) on fixed LNCaP cells versus PSMA-negative MKN45 cells
T1 construct: whole, on cells; Endogenous PSMA on fixed LNCaP cells; PSMA-negative MKN45 gastric cancer cells served as the negative cell line; also called 前列腺特异性膜抗原

[2] = biological target: T2, PSMA胞外区蛋白 (重组表达的前列腺特异性膜抗原膜外区) (UniProt Q04609 44-750, limits assumed); experiment: indirect phage-ELISA, PSMA extracellular region coated at 5 μg/mL, HRP-anti-M13 detection (ELISA-positive clone)
T2 construct: extracellular domain; Expressed from vector pRAG2a in HEK-293 cells, purified with HisTrap FF Crude and detected with anti-His antibody, so it carries a His tag; also called PSMA蛋白; PSMA抗原
T2 sequence (Q04609 44-750 limits assumed): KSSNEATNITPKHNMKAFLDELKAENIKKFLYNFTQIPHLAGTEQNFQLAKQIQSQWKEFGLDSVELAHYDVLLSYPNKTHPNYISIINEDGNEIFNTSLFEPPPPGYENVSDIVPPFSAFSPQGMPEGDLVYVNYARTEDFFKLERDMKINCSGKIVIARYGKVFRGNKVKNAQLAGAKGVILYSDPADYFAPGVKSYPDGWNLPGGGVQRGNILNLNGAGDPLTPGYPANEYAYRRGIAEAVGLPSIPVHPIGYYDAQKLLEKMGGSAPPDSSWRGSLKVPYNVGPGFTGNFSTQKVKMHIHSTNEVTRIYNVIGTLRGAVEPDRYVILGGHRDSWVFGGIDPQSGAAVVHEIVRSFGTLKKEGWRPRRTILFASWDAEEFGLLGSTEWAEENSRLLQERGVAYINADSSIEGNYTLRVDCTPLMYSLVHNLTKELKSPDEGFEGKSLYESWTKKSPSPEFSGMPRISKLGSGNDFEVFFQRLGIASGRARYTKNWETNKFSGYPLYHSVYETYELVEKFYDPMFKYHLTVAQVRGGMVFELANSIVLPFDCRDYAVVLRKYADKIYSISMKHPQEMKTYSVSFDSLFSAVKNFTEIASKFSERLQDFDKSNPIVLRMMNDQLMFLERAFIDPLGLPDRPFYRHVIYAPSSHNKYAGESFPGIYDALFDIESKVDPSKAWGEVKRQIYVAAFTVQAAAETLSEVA

T1 sequence (Q04609 whole entry): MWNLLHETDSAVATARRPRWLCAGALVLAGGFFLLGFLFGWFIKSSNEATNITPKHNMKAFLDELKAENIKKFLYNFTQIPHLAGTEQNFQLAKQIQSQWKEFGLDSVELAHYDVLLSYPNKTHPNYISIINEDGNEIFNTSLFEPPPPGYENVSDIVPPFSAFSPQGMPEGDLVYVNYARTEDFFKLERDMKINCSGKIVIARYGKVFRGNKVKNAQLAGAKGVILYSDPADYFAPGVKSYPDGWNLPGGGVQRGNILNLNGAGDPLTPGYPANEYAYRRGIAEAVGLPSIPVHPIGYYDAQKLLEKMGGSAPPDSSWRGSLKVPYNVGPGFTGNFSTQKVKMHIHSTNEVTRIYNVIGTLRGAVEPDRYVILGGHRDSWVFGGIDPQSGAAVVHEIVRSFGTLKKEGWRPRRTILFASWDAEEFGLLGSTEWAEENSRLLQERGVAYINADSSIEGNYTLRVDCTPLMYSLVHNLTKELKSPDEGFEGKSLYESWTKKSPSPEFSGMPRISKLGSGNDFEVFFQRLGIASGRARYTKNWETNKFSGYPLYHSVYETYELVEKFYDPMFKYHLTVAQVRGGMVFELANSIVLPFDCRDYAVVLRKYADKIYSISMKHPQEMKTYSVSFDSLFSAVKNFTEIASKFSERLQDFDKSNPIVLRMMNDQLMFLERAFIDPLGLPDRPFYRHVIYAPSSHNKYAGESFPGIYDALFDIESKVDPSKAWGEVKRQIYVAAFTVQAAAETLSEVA

B1: 抗前列腺特异性膜抗原单域重链抗体噬菌体阳性克隆 (VHH)
VHH: QVQLVESGGGLVQAGGSLRLSCVVSGRAFRRYAMGWFRQAPGKEREFVAAIRRSRSTYYADSVKGRFTISRDNAKKTVYLQMNSLKPEDTAVYYCAADPVDSVYNTLRAWGYWGQGTQVTVSS
notes: The phage coat protein fusion partner and any linker are not described; also called 针对前列腺特异性膜抗原的单域重链抗体阳性克隆; 展示本发明所述纳米抗体的噬菌体克隆
[1]
  binding result: binds
[2]
  binding result: binds
